Assay results: publication PMC3887213 (2013)

B1: LRRK2 RocCOR tandem domain (LexA-BD bait, wild type) [human] / itself (parent complex)
chain: KAVPYNRMKLMIVGNTGSGKTTLLQQLMKTKKSDLGMQSATVGIDVKDWPIQIRDKRKRDLVLNVWDFAGREEFYSTHPHFMTQRALYLAVYDLSKGQAEVDAMKPWLFNIKARASSSPVILVGTHLDVSDEKQRKACMSKITKELLNKRGFPAIRDYHFVNATEESDALAKLRKTIINESLNFKIRDQLVVGQLIPDCYVELEKIILSERKNVPIEFPVIDRKRLLQLVRENQLQLDENELPHAVHFLNESGVLLHFQDPALQLSDLYFVEPKWLCKIMAQILTVKVEGCPKHPKGIISRRDVEKFLSKKRKFPKNYMSQYFKLLEKFQIALPIGEEYLLVPSSLSDHRPVIELPHCENSEIIIRLYEMPYFPMGFWSRLINRLLEISPYMLSGRERALRPNRMYWRQGIYL

Variants of: B1
Test: quantitative yeast two-hybrid (Q-YTH); n = 6; read off a plot

Variant | percent of parent
KAVPYNRMKLMIVGNTGSGKTTLLQQLMKTKKSDLGMQSATVGIDVKDWPIQIRDKRKRDLVLNVWDFAGREEFYSTHPHFMTQRALYLAVYDLSKGQAEVDAMKPWLFNIKARASSSPVILVGTHLDVSDEKQRKACMSKITKELLNKRGFPAIRDYHFVNAAEESDALAKLRKTIINESLNFKIRDQLVVGQLIPDCYVELEKIILSERKNVPIEFPVIDRKRLLQLVRENQLQLDENELPHAVHFLNESGVLLHFQDPALQLSDLYFVEPKWLCKIMAQILTVKVEGCPKHPKGIISRRDVEKFLSKKRKFPKNYMSQYFKLLEKFQIALPIGEEYLLVPSSLSDHRPVIELPHCENSEIIIRLYEMPYFPMGFWSRLINRLLEISPYMLSGRERALRPNRMYWRQGIYL [chain 1 T164A] | ~110%
KAVPYNRMKLMIVGNTGSGKTTLLQQLMKTKKSDLGMQSATVGIDVKDWPIQIRDKRKRDLVLNVWDFAGREEFYSTHPHFMTQRALYLAVYDLSKGQAEVDAMKPWLFNIKARASSSPVILVGTHLDVSDEKQRKACMSKITKELLNKRGFPAIRDYHFVNADEESDALAKLRKTIINESLNFKIRDQLVVGQLIPDCYVELEKIILSERKNVPIEFPVIDRKRLLQLVRENQLQLDENELPHAVHFLNESGVLLHFQDPALQLSDLYFVEPKWLCKIMAQILTVKVEGCPKHPKGIISRRDVEKFLSKKRKFPKNYMSQYFKLLEKFQIALPIGEEYLLVPSSLSDHRPVIELPHCENSEIIIRLYEMPYFPMGFWSRLINRLLEISPYMLSGRERALRPNRMYWRQGIYL [chain 1 T164D] | ~98%
KAVPYNRMKLMIVGNDGSGKTTLLQQLMKTKKSDLGMQSATVGIDVKDWPIQIRDKRKRDLVLNVWDFAGREEFYSTHPHFMTQRALYLAVYDLSKGQAEVDAMKPWLFNIKARASSSPVILVGTHLDVSDEKQRKACMSKITKELLNKRGFPAIRDYHFVNATEESDALAKLRKTIINESLNFKIRDQLVVGQLIPDCYVELEKIILSERKNVPIEFPVIDRKRLLQLVRENQLQLDENELPHAVHFLNESGVLLHFQDPALQLSDLYFVEPKWLCKIMAQILTVKVEGCPKHPKGIISRRDVEKFLSKKRKFPKNYMSQYFKLLEKFQIALPIGEEYLLVPSSLSDHRPVIELPHCENSEIIIRLYEMPYFPMGFWSRLINRLLEISPYMLSGRERALRPNRMYWRQGIYL [chain 1 T16D] | ~97%
KAVPYNRMKLMIVGNAGSGKTTLLQQLMKTKKSDLGMQSATVGIDVKDWPIQIRDKRKRDLVLNVWDFAGREEFYSTHPHFMTQRALYLAVYDLSKGQAEVDAMKPWLFNIKARASSSPVILVGTHLDVSDEKQRKACMSKITKELLNKRGFPAIRDYHFVNATEESDALAKLRKTIINESLNFKIRDQLVVGQLIPDCYVELEKIILSERKNVPIEFPVIDRKRLLQLVRENQLQLDENELPHAVHFLNESGVLLHFQDPALQLSDLYFVEPKWLCKIMAQILTVKVEGCPKHPKGIISRRDVEKFLSKKRKFPKNYMSQYFKLLEKFQIALPIGEEYLLVPSSLSDHRPVIELPHCENSEIIIRLYEMPYFPMGFWSRLINRLLEISPYMLSGRERALRPNRMYWRQGIYL [chain 1 T16A] | ~93%
